Test results reported in paper PMC5974088, “Structural basis for recognition of 53BP1 tandem Tudor domain by TIRR” (Nature Communications, 2018).

B1: mouse TIRR (6-211) (domain or fragment, M. musculus)
chain: GHMVPELKQISREEAMRLGPGWSHSCHAMLYAANPGQLFGRIPMRFSVLMQMRFDGLLGFPGGFVDRRFWSLEDGLNRVLGLGLGGLRLTEADYLSSHLTEGPHRVVAHLYARQLTLEQLHAVEISAVHSRDHGLEVLGLVRVPLYTQKDRVGGFPNFLSNAFVSTAKYQLLFALKVLNMMPSEKLAEALASATEKQKKALEKLLPPSS
notes: overhang left after TEV cleavage, printed as Gly-His-Met; TIRR (Nudt16L1), M. musculus, residues 6-211; Homodimer by ultracentrifugation and in the crystal; also called Nudt16L1; source: E. coli BL21-Codon PLUS(DE3)-RIPL, purified (Ni-NTA, TEV, heparin, Superdex200); not shown: His6, N-terminal, cleaved

How the values were obtained:
[1] = biological target: the molecule itself; assay: AUC; TIRR alone; 20 mM Tris-HCl pH 7.5, 150 mM NaCl; dimer
[2] = biological target: B1; assay: ITC; 200-400 μM 53BP1 Tudor domain (wt or mutant) injected into 200 μl of 22-44 μM TIRR or Nudt16 (wt or mutant); 25 °C; 20 mM Tris-HCl pH 7.5, 150 mM NaCl; single-site binding model; conditions: both partners purified
[3] = biological target: B1; assay: AUC; sedimentation velocity, 20 °C; TIRR and 53BP1 Tudor assembled in equal molar ratio; 20 mM Tris-HCl pH 7.5, 150 mM NaCl; conditions: both partners purified
[4] = biological target: B1; assay: AUC; sedimentation velocity (20 °C) and sedimentation equilibrium (16 °C); TIRR and 53BP1 Tudor premixed at 2:1 ratio; 20 mM Tris-HCl pH 7.5, 150 mM NaCl; conditions: both partners purified
[5] = biological target: T1, human TIRR (6-211) (H. sapiens, UniProt Q9BRJ7 6-211); assay: ITC; 200-400 μM 53BP1 Tudor domain (wt or mutant) injected into 200 μl of 22-44 μM TIRR or Nudt16 (wt or mutant); 25 °C; 20 mM Tris-HCl pH 7.5, 150 mM NaCl; single-site binding model; conditions: both partners purified
T1 construct: overhang left after TEV cleavage, printed as Gly-His-Met; TIRR (Nudt16L1), H. sapiens, residues 6-211; also called Nudt16L1; source: E. coli BL21-Codon PLUS(DE3)-RIPL, purified (Ni-NTA, TEV, heparin, Superdex200); not shown: His6, N-terminal, cleaved

[6] = biological target: B1; assay: as above; conditions: both partners purified; remark: listed apart in the source
[7] = biological target: B1; assay: as above; conditions: both partners purified; remark: listed apart in the source

T1 sequence (Q9BRJ7 other isoform, or with tags, fused parts or gaps): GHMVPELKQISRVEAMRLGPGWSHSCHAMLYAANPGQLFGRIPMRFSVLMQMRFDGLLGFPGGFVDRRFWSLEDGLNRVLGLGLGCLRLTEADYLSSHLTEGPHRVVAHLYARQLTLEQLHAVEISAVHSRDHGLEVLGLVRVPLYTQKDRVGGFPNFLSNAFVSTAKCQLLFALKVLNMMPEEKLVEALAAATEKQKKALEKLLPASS

Row | Kd [7] | Binder | further results
1 |  | B1 | stoichiometry N [1]: 2
2 |  | 53BP1 Tudor-UDR domain (1484-1631) (domain or fragment, H. sapiens, overhang left after TEV cleavage, printed as Gly-His-Met; 53BP1 Tudor-UDR domain, H. sapiens, residues 1484-1631; source: E. coli BL21-Codon PLUS(DE3)-RIPL, purified (Ni-NTA, TEV, Superdex200); not shown: His6, N-terminal, cleaved) GHMNSFVGLRVVAKWSSNGYFYSGKITRDVGAGKYKLLFDDGYECDVLGKDILLCDPIPLDTEVTALSEDEYFSAGVVKGHRKESGELYYSIEKEGQRKWYKRMAVILSLEQGNRLREQYGLGPYEAVTPLTKAADISLDNLVEGKRKRRS | Kd [2]: 0.9 µM
3 |  | 53BP1 tandem Tudor domain (1484-1603) (domain or fragment, H. sapiens, overhang left after TEV cleavage, printed as Gly-His-Met; 53BP1 tandem Tudor domain, H. sapiens, residues 1484-1603; also called 53BP1 Tudor; 53BP1-Tudor WT; source: E. coli BL21-Codon PLUS(DE3)-RIPL, purified (Ni-NTA, TEV, Superdex200); not shown: His6, N-terminal, cleaved) GHMNSFVGLRVVAKWSSNGYFYSGKITRDVGAGKYKLLFDDGYECDVLGKDILLCDPIPLDTEVTALSEDEYFSAGVVKGHRKESGELYYSIEKEGQRKWYKRMAVILSLEQGNRLREQYGLG | stoichiometry N [3]: 1 53BP1 Tudor per TIRR (printed as 2:2); stoichiometry N [4]: 0.5 53BP1 Tudor per TIRR (printed as TIRR/53BP1 Tudor 2:1); stoichiometry N [2]: 1; Kd [5]: 0.9 µM; Kd [6]: 0.9 µM
4 | 4.7 µM | 53BP1 Tudor L1547A (domain or fragment, H. sapiens, overhang left after TEV cleavage, printed as Gly-His-Met; 53BP1 tandem Tudor domain, H. sapiens, residues 1484-1603; source: E. coli BL21-Codon PLUS(DE3)-RIPL, purified as the wt protein; not shown: His6, N-terminal, cleaved) GHMNSFVGLRVVAKWSSNGYFYSGKITRDVGAGKYKLLFDDGYECDVLGKDILLCDPIPLDTEVTAASEDEYFSAGVVKGHRKESGELYYSIEKEGQRKWYKRMAVILSLEQGNRLREQYGLG | 
5 | 5.4 µM | 53BP1 Tudor D1521A (domain or fragment, H. sapiens, overhang left after TEV cleavage, printed as Gly-His-Met; 53BP1 tandem Tudor domain, H. sapiens, residues 1484-1603; source: E. coli BL21-Codon PLUS(DE3)-RIPL, purified as the wt protein; not shown: His6, N-terminal, cleaved) GHMNSFVGLRVVAKWSSNGYFYSGKITRDVGAGKYKLLFDAGYECDVLGKDILLCDPIPLDTEVTALSEDEYFSAGVVKGHRKESGELYYSIEKEGQRKWYKRMAVILSLEQGNRLREQYGLG | 
6 | 1.5 µM | 53BP1 Tudor F1553A (domain or fragment, H. sapiens, overhang left after TEV cleavage, printed as Gly-His-Met; 53BP1 tandem Tudor domain, H. sapiens, residues 1484-1603; source: E. coli BL21-Codon PLUS(DE3)-RIPL, purified as the wt protein; not shown: His6, N-terminal, cleaved) GHMNSFVGLRVVAKWSSNGYFYSGKITRDVGAGKYKLLFDDGYECDVLGKDILLCDPIPLDTEVTALSEDEYASAGVVKGHRKESGELYYSIEKEGQRKWYKRMAVILSLEQGNRLREQYGLG | 
7 | 17.3 µM | 53BP1 Tudor L1547G (domain or fragment, H. sapiens, overhang left after TEV cleavage, printed as Gly-His-Met; 53BP1 tandem Tudor domain, H. sapiens, residues 1484-1603; source: E. coli BL21-Codon PLUS(DE3)-RIPL, purified as the wt protein; not shown: His6, N-terminal, cleaved) GHMNSFVGLRVVAKWSSNGYFYSGKITRDVGAGKYKLLFDDGYECDVLGKDILLCDPIPLDTEVTAGSEDEYFSAGVVKGHRKESGELYYSIEKEGQRKWYKRMAVILSLEQGNRLREQYGLG | 
8 | 28.5 µM | 53BP1 Tudor Y1523A (domain or fragment, H. sapiens, overhang left after TEV cleavage, printed as Gly-His-Met; 53BP1 tandem Tudor domain, H. sapiens, residues 1484-1603; source: E. coli BL21-Codon PLUS(DE3)-RIPL, purified as the wt protein; not shown: His6, N-terminal, cleaved) GHMNSFVGLRVVAKWSSNGYFYSGKITRDVGAGKYKLLFDDGAECDVLGKDILLCDPIPLDTEVTALSEDEYFSAGVVKGHRKESGELYYSIEKEGQRKWYKRMAVILSLEQGNRLREQYGLG | 
9 | 15.4 µM | 53BP1 Tudor W1495A (domain or fragment, H. sapiens, overhang left after TEV cleavage, printed as Gly-His-Met; 53BP1 tandem Tudor domain, H. sapiens, residues 1484-1603; source: E. coli BL21-Codon PLUS(DE3)-RIPL, purified as the wt protein; not shown: His6, N-terminal, cleaved) GHMNSFVGLRVVAKASSNGYFYSGKITRDVGAGKYKLLFDDGYECDVLGKDILLCDPIPLDTEVTALSEDEYFSAGVVKGHRKESGELYYSIEKEGQRKWYKRMAVILSLEQGNRLREQYGLG | 
10 | 12.7 µM | 53BP1 Tudor Y1500A (domain or fragment, H. sapiens, overhang left after TEV cleavage, printed as Gly-His-Met; 53BP1 tandem Tudor domain, H. sapiens, residues 1484-1603; source: E. coli BL21-Codon PLUS(DE3)-RIPL, purified as the wt protein; not shown: His6, N-terminal, cleaved) GHMNSFVGLRVVAKWSSNGAFYSGKITRDVGAGKYKLLFDDGYECDVLGKDILLCDPIPLDTEVTALSEDEYFSAGVVKGHRKESGELYYSIEKEGQRKWYKRMAVILSLEQGNRLREQYGLG | 
